The chains are these.
B1: Multiple coagulation factor deficiency protein 2 (Homo sapiens), Q8NI22 (parent)
chain: MTMRSLLRTPFLCGLLWAFCAPGARAEEPAASFSQPGSMGLDKNTVHDQEHIMEHLEGVINKPEAEMSPQELQLHYFKMHDYDGNNLLDGLELSTAITHVHKEEGSEQAPLMSEDELINIIDGVLRDDDKNNDGYIDYAEFAKSLQ
partner: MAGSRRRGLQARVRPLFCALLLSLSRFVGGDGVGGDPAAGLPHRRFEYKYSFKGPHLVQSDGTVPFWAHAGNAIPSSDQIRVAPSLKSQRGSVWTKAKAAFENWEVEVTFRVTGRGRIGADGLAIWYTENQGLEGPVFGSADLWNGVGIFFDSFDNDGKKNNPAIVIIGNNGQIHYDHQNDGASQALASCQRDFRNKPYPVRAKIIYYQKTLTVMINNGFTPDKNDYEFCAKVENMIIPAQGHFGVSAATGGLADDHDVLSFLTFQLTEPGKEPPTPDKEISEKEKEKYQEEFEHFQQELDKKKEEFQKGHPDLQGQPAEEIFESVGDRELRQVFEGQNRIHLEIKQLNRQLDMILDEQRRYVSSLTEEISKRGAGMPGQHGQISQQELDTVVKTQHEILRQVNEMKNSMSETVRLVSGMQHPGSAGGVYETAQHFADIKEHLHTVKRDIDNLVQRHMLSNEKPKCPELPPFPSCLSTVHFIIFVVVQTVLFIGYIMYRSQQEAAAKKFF

Variants of B1 are the subject of the assay. The conditions noted are these: with lman1_chlae LMAN1, Q9TU32.
As to MTMRSLLRTPFLCGLLWAFCAPGARAEEPAASFSQPGSMGLDKNTVHDQEHIMEHLEGVINKPEAEMSPQELQLHYFKMHDYDGNNLLDGLELSTAITHVHKEEGSEQAPLMSEDELINIIDGVLRDDDKNNDGYVDYAEFAKSLQ [I136V], the “effect of a mutation on the interaction” value is “decreasing interaction strength”.

Take MTMRSLLRTPFLCGLLWAFCAPGARAEEPAASFSQPGSMGLDKNTVHDQEHIMEHLEGVINKPEAEMSPQELQLHYFKMHDYDGNNLLDGLELSTAITHVHKEEGSEQAPLMSEDELINIIDGVLRDDDKNNDGYTDYAEFAKSLQ [I136T]: the “effect of a mutation on the interaction” value is reported as “disrupting interaction strength”.

On to MTMRSLLRTPFLCGLLWAFCAPGARAEEPAASFSQPGSMGLDKNTVHDQEHIMEHLEGVINKPEAEMSPQELQLHYFKMHDYDGNNLLDGLELSTAITHVHKEEGSEQAPLMSEDELINIIDGVLRDDEKNNDGYIDYAEFAKSLQ [D129E], for which the “effect of a mutation on the interaction” value is given as “disrupting interaction strength”.

(Values after IntAct's records for PubMed 12717434.)
